Target: Full-length human NF1 isoform 2 (short isoform), recombinant (human) (UniProt P21359)
Test: cryo-EM structure

## Full-length human NF1 isoform 2 (short isoform), recombinant, P21359-2 1-2818
  stoichiometry N: 2
